Residue numbers refer to the chain shown, from its start. Numbers in names are those of the source. [ ]: non-standard residue; d: D form. F2Pmp = N[C@@H](Cc1ccc(C(F)(F)P(=O)(O)O)cc1)C(=O)O
T1: EGFR 988-998 peptide DADEpYLIPQQG
T1 chain: DADEXLIPQQG

T2: EGFR^988-998 peptide, DADEpYLIPQQG (Homo sapiens, UniProt P18031, D181A)
T2 construct: The catalytic domain of PTP1B (residues 1 to 321) was used for in vitro study; made in house; host or cells: E. coli (pT7-7 plasmids)
T2 sequence (P18031 1-321 D181A): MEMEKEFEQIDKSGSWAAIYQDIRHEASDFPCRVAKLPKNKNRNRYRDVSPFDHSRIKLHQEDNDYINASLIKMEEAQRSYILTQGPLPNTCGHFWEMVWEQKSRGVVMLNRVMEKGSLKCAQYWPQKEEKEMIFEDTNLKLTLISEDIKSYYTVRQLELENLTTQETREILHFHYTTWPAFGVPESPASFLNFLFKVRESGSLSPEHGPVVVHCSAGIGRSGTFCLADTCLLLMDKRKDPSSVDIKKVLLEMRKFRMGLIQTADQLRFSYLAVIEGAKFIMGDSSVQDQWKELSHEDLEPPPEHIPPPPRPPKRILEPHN

T3: PTP1B/D181A/C215E, catalytic domain (residues 1 to 321) (human, UniProt P18031 1-321)
T3 construct: range 1-321; Used in vitro (ITC)
T3 sequence (looked up): T2 sequence (P18031 1-321 D181A) with C215E

T4: PTP1B/D181A/Q262A, catalytic domain (residues 1 to 321) (human, UniProt P18031 1-321)
T4 construct: range 1-321; Used in vitro (ITC, kinetics); also called PTP1B substrate-trapping double mutant
T4 sequence (looked up): T2 sequence (P18031 1-321 D181A) with Q262A

B1: PTP1B/D181A, catalytic domain (residues 1 to 321) (protein)
chain: T2 sequence (P18031 1-321 D181A)
B2: PTP1B/D181A/C215S, catalytic domain (residues 1 to 321) (enzyme, human, UniProt P18031 1-321, looked up)
chain: T2 sequence (P18031 1-321 D181A) with C215S
B3: Ac-Asp-Ala-Asp-Glu-F2Pmp-Leu-NH2 (peptide)
peptide: Ac-DADE[F2Pmp]L-NH2
notes: Synthetic hexapeptide printed in three-letter code; also called F2Pmp-containing peptide; non-hydrolyzable substrate analog

Assays:
[1] = target: T1, EGFR 988-998 peptide DADEpYLIPQQG
EGF receptor = test: Substrate protection: EGF receptor tyrosine phosphorylation in COS1 cells expressing PTP1B forms (anti-pTyr Western blot); format: cell-based, Monkey; details: COS1 cell lysates, anti-pTyr immunoblot (FIG. 4)
Method: FIG. 4 sets forth Western blots (WB) that show the level of tyrosine phosphorylation in the epidermal growth factor receptor (EGFR) upon expression of the wild-type and mutant PTP1Bs (4 μg plasmid/60 mm dish) in COS1 cells. Samples (50 μg total protein) were taken from the lysates of COS1 cells transfected with 4 μg of pJ3H plasmids expressing HA-tagged wild-type PTP1B, D181A, C215S, D181A/Q262A, or D181A/C215S. These samples were loaded into each lane for SDS-PAGE electrophoresis, and transferred onto a nitrocellulose membrane. The proteins on the membrane were first immunoblotted with anti-pTyr HRP conjugate (upper panel). The membrane was then stripped and re-probed with anti-hemagglutinin (anti-HA) HRP conjugate (lower panel).
The hemagglutinin-tagged (HA-tagged) full-length human wild-type PTP1B in pJ3H expression vector was a gift from Dr. Chemoff (30). The HA-tagged PTP1B mutants, C215S, D181A, D181A/C215S, and D181A/Q262A, were generated by PCR reactions, according to the standard procedure of the Quick-Change™ site-directed mutagenesis kit (Stratagene), using pJ3H-HA-PTP1B as a template. All mutations were verified by DNA sequencing.
Monkey kidney COS1 cells (ATCC: CRL-1650) were maintained in Dulbecco's modified Eagle's minimum essential medium (DMEM), supplemented with 10% fetal bovine serum (Life Technologies, Inc.), penicillin (50 units/ml), streptomycin (50 μg/ml), and L-glutamine (2 mM) under a humidified atmosphere containing 5% CO2. In transient transfection experiments, COS1 cells were inoculated at a density of 2×10^5 cells/60-mm dish, and grown overnight in DMEM containing 10% fetal bovine serum. Transfection was performed using LipoTAXI^R according to the manufacturer's recommendations (Stratagene, Cedar Creek, Tex.). Each transfection assay included 4 μg of purified DNA mixed with LipoTAXI^R in a 1:5 DNA:lipid ratio per 60-mm dish of cells. Following transfection, the cells were exchanged to normal culture medium, and maintained for 44 to 48 h at 37° C. and 5% CO2. The efficiency of transfection, as assessed by 5-bromo-4-chloro-3-indolyl-β-D galactoside (X-Gal) staining of pCMV-β-gal-transfected (β-Gal staining kit, Invitrogen) COS cells, was 25%.
The transfected cells (treated with or without EGF) were lysed with “lysis buffer” containing 50 mM Tris-HC1 (pH 7.5), 5 mM EDTA, 150 mM NaCl, 10 mM sodium phosphate, 10 mM sodium fluoride, 5 mM iodoacetic acid, 1 mM benzamidine, 1% Triton X-100, 10 μg/ml leupeptin, and 5 μg/ml Aprotinin. Lysate protein concentration was estimated using Bio-Rad protein assay reagent (Bio-Rad, Hercules, Calif.).
For immunoprecipitation, 1 mg of cell lysate was immunoprecipitated overnight with 30 μl of agarose-conjugated anti-hemagglutinin antibody at 4° C. Immunocomplexes were washed four times with the cell lysis buffer, and boiled for 5 min in SDS-PAGE sample buffer. Proteins in the cell lysate were separated by 8% SDS-PAGE under reducing conditions, according to the method of Laemmli (31), followed by blotting onto nitrocellulose membranes (Protran, Schleicher & Schuell). The nitrocellulose membranes were blocked with 5% non-fat dry milk in Tris-buffered saline/Tween (TBST) buffer (20 mM Tris-HC1, 150 mM NaCl, 0.1% Tween-20; pH 7.6) for 1 h at 25° C.
Thereafter, blots were incubated overnight with primary antibodies diluted in TBST containing 5% non-fat dry milk at 4° C. […]

[2] = tested on: Ac-Asp-Ala-Asp-Glu-F2Pmp-Leu-NH2; details: cited from earlier work
[3] = tested on: EGFR^988-998 peptide, DADEpYLIPQQG; test: Kinetic constants for PTP1B-catalyzed hydrolysis of pTyr-containing EGFR988-998 peptide; format: biochemical; details: EGFR988-998 peptide as substrate
Source text: (§1) The catalytic domain of PTP1B (residues 1 to 321) was used for in vitro study. PTP1B mutants, C215S, D181A, and Q262A, were described previously (9, 25, 26). PTP1B double mutants, D181A/C215S and C215S/Q262A, were generated by PCR reactions, according to the standard procedure of the Quick-Change™ site-directed mutagenesis kit (Stratagene), using pT7-7/PTP1B/C215S as a template. PTP1B double mutants, D181A/C215E and D181A/Q262A, were generated by similar PCR procedures, using pT7-7/PTP1B/D181A as a template. The recombinant wild-type and mutant PTP1Bs were expressed in E. coli, and purified to homogeneity as described (25, 27). Protein concentration was determined from absorbance measurement at 280 nm, using an absorbance coefficient of 1.24 for 1 mg/ml PTP1B.
(§2) All assays were performed at 25° C. in buffer (pH 7.0, ionic strength=0.15 M) containing 50 mM 3,3-dimethylglutarate and 1 mM EDTA. A continuous spectrophotometric assay, previously described (28), was employed to determine kcat and Km for the pTyr-containing peptides. The dephosphorylation reaction was monitored by either an increase in absorbance at 282 nm, or an increase in fluorescence at 305 nm. Fluorometric and absorbance determinations were performed on a Perkin-Elmer LS50B fluorometer and a Perkin-Elmer Lambda 14 spectrophotometer, respectively. The instruments were equipped with a water-jacketed cell holder, permitting maintenance of the reaction mixture at the desired temperature (25° C.).

[4] = target: T2, EGFR^988-998 peptide, DADEpYLIPQQG; test: as above; format: biochemical; details: EGFR988-998 peptide as substrate
Source text: as §1, §2

[5] = Kinetic constants for PTP1B-catalyzed hydrolysis of pNPP; format: biochemical; details: pNPP as substrate
Source text: as §1
PTP activity was assayed at 25° C. and pH 7.0, in a reaction mixture (0.2 ml) containing pNPP concentrations ranging from 0.2 to 5 Km. The following buffered solution was used for activity measurements: pH 7.0, 50 mM 3,3-dimethylglutarate, 1 mM EDTA; the ionic strength was 0.15 M, as adjusted by addition of NaCl. Initial rate measurements for the enzyme-catalyzed hydrolysis of pNPP were conducted as previously described (26). Michaelis-Menten kinetic parameters were determined from a direct fit of the data to the Michaelis-Menten equation, using the nonlinear regression program, KINETASYST (Intellikinetics, State College, Pa.).

[6] = target: B3; test: ITC; complex titration curve, no Kd obtained
[7] = target: T3, PTP1B/D181A/C215E, catalytic domain …; test: ITC, 25 C, pH 7.0
Method: (§3) All isothermal titration calorimetry experiments were performed using an MCS Isothermal Titration Calorimetry System from Microcal Inc. (Northampton, Mass.). Experiments at pH 7.0 were conducted at 25° C., in 50 mM 3,3-dimethylglutarate buffer containing 1 mM DTT. The ionic strength of the buffer was adjusted to 0.15 M by addition of NaCl. Protein concentration in the calorimeter cell was 27-85 µM, while the ligand concentration in the syringe was 0.37-1 mM.
(§4) The PTP1B samples used in the isothermal titration calorimetry experiments were dialyzed completely against buffer. High-concentration stock solutions were prepared for ligands with distilled water, and adjusted to pH 7.0. […] Protein dilution during titration was determined by titration of buffer into the protein solution. […] The heat of ligand dilution was corrected by subtracting the average heat of injection after saturation.
(§5) A typical titration curve and binding isotherm for the binding of D181A/Q262A to Ac-Asp-Ala-Asp-Glu-F_2Pmp-Leu-NH_2 is shown in FIG. 3. From curve-fitting of the binding isotherms, the stoichiometry for the binding of the peptide to D181A/Q262A was determined to be 1:1.

[8] = target: T4, PTP1B/D181A/Q262A, catalytic domain …; test: ITC, 25 C, pH 7.0
Method: as §3, §4, §5

Molecule | Km (hydrolysis of the EGFR 988-998 peptide, 25 C, pH 7.0) [1] [µM] | level of pTyr in the EGF receptor / enhancement of EGF receptor phosphorylation (EGF receptor) | binding, fold tighter than the C215S mutant ([2]; F2Pmp peptide, previously determined (24)) [fold] | Kd ([2]; ITC, 25° C. and pH 7.0, data from (24)) [nM] | Km ([3]; 25° C. and pH 7.0) [µM] | kcat ([3]; 25° C. and pH 7.0) | Km, fold higher than PTP1B (wild-type) [4] [fold] | kcat, fold lower than PTP1B (wild-type) [4] [fold] | Km, fold lower than wild-type enzyme [5] [fold] | kcat, fold lower than wild-type enzyme [5] [fold] | Km ([5]; 25° C. and pH 7.0) [µM] | kcat ([5]; 25° C. and pH 7.0) | phosphatase activity [3] | binding stoichiometry [6] | Kd [7] [nM] | Kd [8] [nM]
B1 | 56 | higher in cells expressing the D181A, rather than the C215S, mutant | 5 | 40 ± 10 | 56 ± 2 | (6.5 ± 0.2) × 10^−2 s^− | 22 | 920 | 30 | 320 | 80 ± 30 | (3.1 ± 0.3) × 10^−2 s^−1 | – | – | – | –
B2 | – | comparable affinity to that of C215S | – | – | – | – | – | – | – | – | – | – | no measurable activities | 0.1 | – | –
B3 | – | – | – | – | – | – | – | – | – | – | – | – | – | – | 1300 | 6.8

Reference: patent US8071348B2, “Protein tyrosine phosphatase substrate-trapping double mutant and uses thereof” (Albert Einstein College of Medicine of Yeshiva University, priority 2002, dated 2011)
